Experimental findings from publication PMC7114247 are described below.

As a reminder, the Kd is the constant that tells how readily two partners part at equilibrium. Higher therefore signals lower affinity.

The data set has as its target rVP35 wt (Zaire ebolavirus) (UniProt Q05127).
UniProt Q05127, sequence (Q05127 whole entry): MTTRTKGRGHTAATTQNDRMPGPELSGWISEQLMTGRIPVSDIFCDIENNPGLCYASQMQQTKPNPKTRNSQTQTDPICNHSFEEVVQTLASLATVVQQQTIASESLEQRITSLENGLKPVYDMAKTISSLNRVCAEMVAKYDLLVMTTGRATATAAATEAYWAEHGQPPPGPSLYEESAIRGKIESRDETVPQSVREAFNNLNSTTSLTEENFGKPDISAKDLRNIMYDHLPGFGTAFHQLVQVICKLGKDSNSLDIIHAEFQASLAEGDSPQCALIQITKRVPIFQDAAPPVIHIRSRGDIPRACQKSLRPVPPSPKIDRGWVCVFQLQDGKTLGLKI
The substance IVT 150 bp dsRNA came in with a Kd of 2.4 nM.
The value for IVT 500 bp dsRNA was 2.8 nM; that for IVT 50 bp dsRNA was 3.2 nM.
